# From paper PMC7665200, “Mus81-Mms4 endonuclease is an Esc2-STUbL-Cullin8 mitotic substrate impacting on genome integrity” (Nature Communications, 2020)
# B1: Mus81 peptide EKGTKKRKTRKYIPK (peptide)
# peptide: EKGTKKRKTRKYIPK
# notes: 15-aa stretch of Mus81, S. cerevisiae; Immobilised on the array; It is printed as the 'consensus motif' of a response peak of overlapping 15-mers; source: synthetic peptide, printed on a peptide microarray (PEPperPRINT GmbH)
# B2: Mms4 peptide RSKKSSQVGKLGIKK (peptide)
# peptide: RSKKSSQVGKLGIKK
# notes: 15-aa stretch of Mms4, S. cerevisiae; Immobilised on the array; It is printed as the 'consensus motif' of a response peak of overlapping 15-mers; source: synthetic peptide, printed on a peptide microarray (PEPperPRINT GmbH)
# Molecular target: T1, GST-Esc2 (Saccharomyces cerevisiae, UniProt Q06340 1-456)
# T1 construct: Esc2, Saccharomyces cerevisiae, full-length gene cloned into BamHI/SalI of pGEX-6P-2; pGEX-6P-2 should place GST at the N-terminus (surmised from the vector); also called recombinant glutathione S-transferase (GST)-Esc2; GST-tagged Esc2; source: E. coli BL21 (DE3), purified (glutathione-Sepharose 4B, eluted with reduced glutathione, dialysed)
# T1 sequence (looked up): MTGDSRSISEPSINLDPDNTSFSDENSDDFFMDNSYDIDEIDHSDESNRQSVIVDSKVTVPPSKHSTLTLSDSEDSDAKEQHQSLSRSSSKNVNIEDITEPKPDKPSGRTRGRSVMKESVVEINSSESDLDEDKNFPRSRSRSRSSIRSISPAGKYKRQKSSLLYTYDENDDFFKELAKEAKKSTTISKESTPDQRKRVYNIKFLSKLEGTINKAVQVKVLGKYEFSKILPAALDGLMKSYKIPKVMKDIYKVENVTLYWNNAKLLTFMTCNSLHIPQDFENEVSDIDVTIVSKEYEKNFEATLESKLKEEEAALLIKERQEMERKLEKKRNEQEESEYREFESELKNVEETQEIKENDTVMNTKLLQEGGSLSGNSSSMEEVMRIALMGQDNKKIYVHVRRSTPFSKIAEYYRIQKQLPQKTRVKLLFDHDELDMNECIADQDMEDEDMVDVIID
# Experiment: peptide or protein array; PEPperPRINT microarray of 15-aa peptides covering the entire Mms4 and Mus81 with 14-aa overlaps, printed in duplicate; purified GST-Esc2 in solution, detected with anti-GST DyLight680
# Settings: both partners purified
row,binding result,Binder
1,binds,B1
2,binds,B2
